Molecular target: T1, CHMP3 (human, UniProt Q9Y3E7 1-222)
T1 sequence (looked up): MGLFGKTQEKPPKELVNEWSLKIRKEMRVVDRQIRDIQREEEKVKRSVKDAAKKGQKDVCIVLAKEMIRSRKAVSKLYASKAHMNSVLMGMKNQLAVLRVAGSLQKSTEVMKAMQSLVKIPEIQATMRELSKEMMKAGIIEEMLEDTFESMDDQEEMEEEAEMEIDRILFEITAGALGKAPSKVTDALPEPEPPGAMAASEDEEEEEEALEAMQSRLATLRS
Test: negative-stain electron microscopy

B1: CHMP2A (natural protein, human, UniProt O43633 1-222, looked up)
chain: MDLLFGRRKTPEELLRQNQRALNRAMRELDRERQKLETQEKKIIADIKKMAKQGQMDAVRIMAKDLVRTRRYVRKFVLMRANIQAVSLKIQTLKSNNSMAQAMKGVTKAMGTMNRQLKLPQIQKIMMEFERQAEIMDMKEEMMNDAIDDAMGDEEDEEESDAVVSQVLDELGLSLTDELSNLPSTGGSLSVAAGGKKAEAAASALADADADLEERLKNLRRD
Question: Does B1 bind?
Answer: binds

From article PMC3727925 (Molecular Biology of the Cell, 2013)
